Source: the supplement of paper PMC7125110
± gives the standard error. This sample holds only a part of the variants without activity.

B1: glmS ribozyme (parent)
chain: AUAAAAGCGCCAGAACUACAGAAAUGUAGUUGACGAGGAGGAGGUUUAUCGAAUUUUCGGCGGAUGCCUCCAAA

Assays:
Conditions in all cases: with glucosamine-6-phosphate
glucosamine-6-phosphate [1] = variants of: B1; test: self-cleavage kobs at 40 uM GlcN6P; higher = faster cleavage; RNA array
Summary of the method: (§1)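 Using a hybridised Cy3 probe at 37 °C, barcoded ribozyme variants transcribed in situ by E. coli RNA polymerase on sequenced MiSeq chips were monitored across tiles imaged over ~14 h. The flow contained glucosamine-6-phosphate from 40 μM to 10 mM in HEPES/KCl/Mg(OAc)2 buffer. Signals were normalised to baseline and to non-cleaving reference variants before per-tile medians were fit to one- or two-exponential decays to yield kobs. Weighted Michaelis–Menten fits across concentrations gave kcat and KM.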

glucosamine-6-phosphate [2] = variants of: B1; test: self-cleavage kobs at 160 uM GlcN6P; higher = faster cleavage; RNA array
Summary of the method: as §1

glucosamine-6-phosphate [3] = variants of: B1; test: self-cleavage kobs at 640 uM GlcN6P; higher = faster cleavage; RNA array
Summary of the method: as §1

glucosamine-6-phosphate [4] = variants of: B1; test: self-cleavage kobs at 2500 uM GlcN6P; higher = faster cleavage; RNA array
Summary of the method: as §1

glucosamine-6-phosphate [5] = variants of: B1; test: self-cleavage kobs at 10000 uM GlcN6P; higher = faster cleavage; RNA array
Summary of the method: as §1

Row | Variant | self-cleavage kobs at 40 uM GlcN6P (glucosamine-6-phosphate [1]) [s⁻¹] | self-cleavage kobs at 160 uM GlcN6P (glucosamine-6-phosphate [2]) [s⁻¹] | self-cleavage kobs at 640 uM GlcN6P (glucosamine-6-phosphate [3]) [s⁻¹] | self-cleavage kobs at 2500 uM GlcN6P (glucosamine-6-phosphate [4]) [s⁻¹] | self-cleavage kobs at 10000 uM GlcN6P (glucosamine-6-phosphate [5]) [s⁻¹]
1 | C16A A39U G51U | < 1e-05 |  |  |  | 
2 | A14G C16U U45G C67U | 0.00026 ± 6.6e-05 | 0.000132 ± 3e-05 | 0.00248 ± 0.0012 | 0.00988 ± 0.0035 | 
3 | A14C G40U U46C C68U | < 1e-05 |  |  |  | 
4 | A15C G35U C50U | < 1e-05 |  |  | < 1e-05 | < 1e-05
5 | A14C U49A G63A | < 1e-05 |  |  |  | 
6 | A15C U46A C58U | < 1e-05 |  |  |  | 
7 | A14U A33G G38U C71A | < 1e-05 |  |  |  | 
8 | A15G A36G G44U | < 1e-05 |  |  | < 1e-05 | 
9 | A15U A39U U46A | < 1e-05 |  |  |  | 
10 | G13U C16G U31G C34U | < 1e-05 |  |  |  | 
11 | A14G C16U | 0.00189 ± 0.00023 | 0.0032 ± 0.0007 | 0.00488 ± 0.00082 | 0.00522 ± 0.0012 | 0.0726 ± 0.02
12 | A15G U54A G62C U65A | < 1e-05 |  | < 1e-05 | < 1e-05 | < 1e-05
13 | A14U G37U C70A | < 1e-05 |  |  |  | 
14 | A14G A15U C67G | 5.43e-05 ± 1.3e-05 |  |  |  | 0.0027 ± 0.00046
15 | A14C U31C A39U | 2.48e-05 ± 1.1e-05 |  |  |  | 0.00132 ± 0.00031
16 | A14C A15U G51C | < 1e-05 |  |  |  | 
17 | A15U A36U G60A | < 1e-05 |  |  |  | 
18 | A14U A48C G51C U65G | < 1e-05 |  |  |  | < 1e-05
19 | A15G G38U U47A C68G | 9.09e-05 ± 3.3e-05 |  |  |  | 
20 | A14G A53G | 0.00182 ± 0.00029 | 0.00412 ± 0.00073 | 0.0226 ± 0.0043 | 0.0146 ± 0.0045 | 0.0452 ± 0.013
21 | G13U G59C | < 1e-05 |  | < 1e-05 |  | < 1e-05
22 | A14U A53U C71U | 9.83e-05 ± 2.7e-05 | 0.00021 ± 4.5e-05 | 0.000509 ± 8.6e-05 | 0.00145 ± 0.00032 | 0.00546 ± 0.0013
23 | A14C U57C U69C | < 1e-05 |  |  |  | 
24 | A14U G35C | < 1e-05 | < 1e-05 | < 1e-05 | < 1e-05 | < 1e-05
25 | A15G G41A | 0.000137 ± 1.9e-05 | 0.000239 ± 4.1e-05 | 0.000767 ± 0.00025 | 0.0013 ± 0.00038 | 0.00309 ± 0.00072
26 | C16A G37C A48U U49C A52G G62C | < 1e-05 |  |  |  | < 1e-05

Row | Variant | self-cleavage kobs at 40 uM GlcN6P (glucosamine-6-phosphate [1]) [s⁻¹] | self-cleavage kobs at 160 uM GlcN6P (glucosamine-6-phosphate [2]) [s⁻¹] | self-cleavage kobs at 640 uM GlcN6P (glucosamine-6-phosphate [3]) [s⁻¹] | self-cleavage kobs at 2500 uM GlcN6P (glucosamine-6-phosphate [4]) [s⁻¹] | self-cleavage kobs at 10000 uM GlcN6P (glucosamine-6-phosphate [5]) [s⁻¹]
27 | A14U G32C C50A C68G | 8.36e-05 ± 3e-05 |  | 0.000278 ± 7.7e-05 | 0.000126 ± 6e-05 | 7.34e-05 ± 2.2e-05
28 | A14G U55C A64C | < 1e-05 |  |  |  | 
29 | G13U A33U G44C | < 1e-05 |  |  |  | 
30 | A14C A53C G62C C68G | < 1e-05 |  |  |  | < 1e-05
31 | A14U U30C C61U C68A | < 1e-05 |  |  |  | 
32 | A14C U30G C50A G60U G63U | < 1e-05 |  |  |  | < 1e-05
33 | A14C G43U | < 1e-05 | < 1e-05 | < 1e-05 | < 1e-05 | 
34 | A14U U55G C61G | < 1e-05 |  |  |  | < 1e-05
35 | A15G A48U U57C | < 1e-05 | < 1e-05 |  | < 1e-05 | < 1e-05
36 | A14C A48G U69C | < 1e-05 |  |  |  | 
37 | G13C U57G | < 1e-05 |  |  |  | 
38 | A14G A39U U56C | 0.000144 ± 2.6e-05 |  |  |  | 0.00921 ± 0.0012
39 | A14U G41U G44U | < 1e-05 | < 1e-05 | < 1e-05 |  | < 1e-05
40 | A14G A52G | 9.65e-05 ± 1.7e-05 | 0.000152 ± 4e-05 | 0.00106 ± 0.00018 | 0.00234 ± 0.00051 | 0.00467 ± 0.001
41 | A14G G40U C58G G60A | < 1e-05 |  |  | < 1e-05 | 
42 | A14G U55C C70U | 6.64e-05 ± 2.1e-05 |  |  |  | 0.00236 ± 0.00041
43 | G13U U31C A33C A48C A52C U56G | < 1e-05 |  |  |  | 
44 | A15C C50G A53G G62A C70G | 0.000105 ± 3e-05 |  | 8.17e-05 ± 2.4e-05 | 0.000125 ± 4.1e-05 | 8.78e-05 ± 1.9e-05
45 | A14C U55G | 9.05e-05 ± 2.8e-05 |  |  |  | 0.00435 ± 0.0012
46 | G13U G51U | < 1e-05 | < 1e-05 |  | < 1e-05 | < 1e-05
47 | A15G C50U G60A A64C | < 1e-05 |  |  |  | 
48 | A14C A36G | < 1e-05 | < 1e-05 | < 1e-05 | < 1e-05 | < 1e-05
49 | A14C G62C G63A C68G | < 1e-05 |  |  |  | 
50 | A14U A53G | 0.000202 ± 2.5e-05 | 0.000311 ± 5.2e-05 | 0.00204 ± 0.00026 | 0.00365 ± 0.00059 | 0.00969 ± 0.0011
51 | A15G A64G | 0.000819 ± 0.00013 | 0.00196 ± 0.00048 | 0.0063 ± 0.0012 | 0.00698 ± 0.0018 | 0.0604 ± 0.017
